Experimental data from the supplement of paper PMC10126150.
± gives the standard deviation of the averaged measurements.

System: ATP
Experiment: switch fluorescence ratio, 500 uM ATP over buffer (Cy3 cluster intensity, sum of 5 cycles each) (fold (ratio)); higher = stronger signal-on switching upon ATP binding; sequences stand for … in TCGTCGGCAGCGTCAGATGTGTATAAGAGACAGTTTTTTTTTTTTTTTTTTTTTTTTT…TC
Conditions: aptamer strand: ATP DNA aptamer (quencher-CACCTGGGGGAGTATTGCGGAGGAAGG + anchor), 100 nM annealed; ATP concentration: 500 uM
Procedure, shortened: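 Imaging in selection buffer was followed by imaging after 15 min with 500 uM ATP at 22 °C, for Cy3-labelled switching-strand clusters annealed to 100 nM quencher-labelled ATP aptamer on a modified Illumina MiSeq flow-cell. Five of these buffer/ATP cycles ran, separated by NaOH stripping and re-annealing. The fluorescence ratio per cluster is summed target-cycle over summed buffer-cycle Cy3 intensity, averaged per switch-domain sequence; clusters outside 100-1000 RFU were removed.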
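Also: ATP exposure 15 min at 22 °C before imaging.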

Row | Sequence | switch fluorescence ratio
1 | ATAGGGCAGC | 1.03 ± 0.04
2 | TTCATAAATT | 1.02 ± 0.023
3 | GGTTTTAGTT | 0.986 ± 0.03
4 | TGAGGAGGTT | 0.981 ± 0.072
5 | CTCGGCGGAG | 1.026 ± 0.0082
6 | TGTGAAACCT | 1.95 ± 1.2
7 | AGTGTGGGGG | 1.01 ± 0.029
8 | AGCTGGCTAA | 0.967 ± 0.014
9 | GTGATCCTTC | 1.03 ± 0.034
10 | AGGGCTGTTC | 1.063 ± 0.0045
11 | TTTTGCGAAC | 1.94 ± 1.2
12 | TGCCCCTTTT | 0.98 ± 0.013
13 | TACGATTGGA | 1.034 ± 0.0011
14 | AAACCCTGAG | 1.14 ± 0.2
15 | TAGCCATTGG | 1.05 ± 0.081
16 | TTAATCGGTT | 1.005 ± 0.01
17 | AGCGTAGTGG | 1.027 ± 0.0061
18 | TTTTTATGAT | 0.983 ± 0.022
19 | TCAGATGGTG | 1.02 ± 0.014
20 | TCAGCATTTT | 1.01 ± 0.046
21 | GATGTTTTGA | 1 ± 0.018
22 | AACCCGGGGT | 0.99 ± 0.045
23 | CAAGTACGGA | 1.1 ± 0.17
24 | TGATCATATT | 1.024 ± 0.0079
25 | TCATGTTGCT | 1.01 ± 0.025

Row | Sequence | switch fluorescence ratio
26 | GGGTTTAGTG | 0.962 ± 0.014
27 | CGTCATATTA | 1.008 ± 0.0025
28 | AGTTTGGGAA | 1 ± 0.018
29 | GCGCTTAGGT | 0.983 ± 0.077
30 | CAGGCTATTT | 1.03 ± 0.049
31 | AGTTTGATGG | 0.99 ± 0.087
32 | AGGTGGGTCT | 0.991 ± 0.011
33 | GTGGATAAGA | 1.0003 ± 1.9e-06
34 | GGGGACTGGG | 1 ± 0.058
35 | TATTTGATGC | 1.02 ± 0.036
36 | TTGTTTCAGG | 1.01 ± 0.018
37 | ACTATTGCGG | 1.01 ± 0.025
38 | AGGAGGTGGT | 1.04 ± 0.015
39 | CGACGTGCGG | 0.9944 ± 0.0062
40 | TTGCTTTTGG | 1.04 ± 0.11
41 | CCCAGGTAGC | 4.65 ± 0.43
42 | TGTTTTGGGG | 0.998 ± 0.035
43 | CACTAATTAA | 1.004 ± 0.009
44 | CGCCCTTGGG | 0.992 ± 0.024
45 | GATTGAGCGG | 1.01 ± 0.018
46 | TCTGCCCCCC | 1.12 ± 0.042
47 | TATTGCTATT | 0.972 ± 0.017
48 | AGGGATTGAT | 1.01 ± 0.059
49 | TCCATTCATA | 1.01 ± 0.023
50 | GGAGGGGAGT | 0.999 ± 0.014

Row | Sequence | switch fluorescence ratio
51 | GTGTCTGGGA | 0.985 ± 0.024
52 | GTATATGGTC | 1.02 ± 0.03
53 | TTTTACTTCT | 1.04 ± 0.062
54 | CTGGTGTAGT | 1.03 ± 0.047
55 | CATGTACTTT | 1.08 ± 0.031
56 | CTGGGAGATG | 0.99088 ± 0.00019
57 | TTATGCTGTT | 1 ± 0.011
58 | TCGGGGGTGC | 1.04 ± 0.033
59 | CAGTTACGAT | 1.03 ± 0.032
60 | AACTGAGTGC | 1 ± 0.043
61 | GGGGAGGGGA | 1.01 ± 0.04
62 | CGGGGTGTTC | 0.9849 ± 0.0049
63 | GCTGGGAGTC | 1 ± 0.029
64 | AAGGGCCAAT | 1 ± 0.022
65 | TTAAGCCTTT | 1.02 ± 0.034
66 | TGCTGGGGAT | 1.009 ± 0.0015
67 | ATTTGTCAAG | 0.999 ± 0.016
68 | TTCAGGGGCA | 1.08 ± 0.033
69 | TCTGCTCTGG | 0.983 ± 0.03
70 | GAAGAAAACT | 1.08 ± 0.014
71 | CGACGTGATG | 1.227 ± 0.0082
72 | ATCTGTGGTT | 0.978 ± 0.023
73 | CACTACGAAT | 1.051 ± 0.007
74 | ATGTCACTTG | 1.02 ± 0.018
75 | TAAGAGGGTT | 1 ± 0.022

Row | Sequence | switch fluorescence ratio
76 | CATCGGTGGG | 0.97 ± 0.016
77 | GTTCATGGTA | 0.99 ± 0.0028
78 | TTTATGTTTC | 0.98 ± 0.025
79 | TGCTTTTTA | 0.971 ± 0.051
80 | GTTGATAAGG | 1.01 ± 0.045
81 | ATTTATATAT | 1 ± 0.05
82 | TTCGGAGTTA | 1.09 ± 0.12
83 | CGATGCTGGT | 1.02 ± 0.053
84 | GATGGGGTAA | 0.997 ± 0.008
85 | CGATGCTCTG | 1.01 ± 0.063
86 | TTTATTTGCG | 0.9875 ± 0.0067
87 | CCGGTGTCTG | 1.05 ± 0.09
88 | ATCTTCTTAG | 0.977 ± 0.051
89 | CAAGATAGGG | 1.01 ± 0.026
90 | AATGTTGAAG | 0.987 ± 0.034
91 | GAGCGGTTAT | 1.33 ± 0.42
92 | TGGCAGCAGT | 1.09 ± 0.019
93 | TTAAAATTTT | 1.06 ± 0.06
94 | AGTAGAAATG | 0.991 ± 0.012
95 | CAAAAGTAGA | 0.991 ± 0.036
96 | TCGTTAATTA | 1.06 ± 0.026
97 | ATTAAAAAAA | 1.11 ± 0.18
98 | AACATCGTAC | 1.12 ± 0.06
99 | CTCGAAAAAA | 1.05 ± 0.014
100 | TCGTTTACGC | 1.02 ± 0.08

Row | Sequence | switch fluorescence ratio
101 | GTTTCGGTGG | 0.986 ± 0.085
102 | TACTGCGGCA | 1.04 ± 0.031
103 | GAATTCTATG | 0.997 ± 0.042
104 | GGAACTGTCT | 1.01 ± 0.013
105 | TATACTGGGG | 1.03 ± 0.059
106 | TTGATTTTAG | 1 ± 0.031
107 | GGAGCCCGGT | 1.01 ± 0.029
108 | TTCTGCGGGG | 1.04 ± 0.046
109 | CGGGCTTGGG | 0.968 ± 0.0031
110 | TGAAACGCTG | 1.06 ± 0.04
111 | GAATAAAATA | 1.02 ± 0.039
112 | GCTATTTACT | 1.06 ± 0.076
113 | TTTAGGTGGC | 1.02 ± 0.009
114 | TTAAAAACTG | 0.992 ± 0.033
115 | CATAACTATT | 0.989 ± 0.015
116 | AATAGGAAGG | 1.01 ± 0.046
117 | TTGGCAAAGG | 1.1 ± 0.19
118 | TTATTTGTTA | 1.01 ± 0.041
119 | TTCAGTTTCG | 1.01 ± 0.027
120 | GGCGCAACGG | 1.05 ± 0.024
121 | GACAGTTAGC | 1.03 ± 0.013
122 | ATATTGATAT | 1.01 ± 0.021
123 | TTTTTTTTAT | 1 ± 0.024
124 | CATTACAGTG | 1.01 ± 0.014
125 | GTGTCTAGTA | 1 ± 0.02

Row | Sequence | switch fluorescence ratio
126 | CGTGTTTGTG | 0.999 ± 0.067
127 | GATTTGTGGG | 0.994 ± 0.024
128 | TGGCTCTGAG | 0.9973 ± 0.0028
129 | TTTTGCACTT | 1.022 ± 0.0012
130 | TATAGGGTTG | 0.999 ± 0.033
131 | TTAAATTGAT | 0.987 ± 0.04
132 | GCGAGTTATG | 1.03 ± 0.031
133 | GGTGAAGGCA | 1 ± 0.023
134 | GAAGCCGGGG | 0.9839 ± 0.0083
135 | TTGGAGGAGA | 1.029 ± 0.005
136 | AGGGTGCGGG | 1.01 ± 0.018
137 | CTGATTAGGA | 0.989 ± 0.017
138 | GGGTTGTTAG | 0.996 ± 0.027
139 | GGAGGAAAGT | 1 ± 0.029
140 | TGAATAAGAG | 1.01 ± 0.026
141 | GATGATAACG | 0.99754 ± 0.00091
142 | CTGTTTGCAG | 0.987 ± 0.056
143 | GAGGGGGCCC | 1.01 ± 0.026
144 | GGGCGAGGGG | 1.01 ± 0.026
145 | GATAGACCAG | 1.01 ± 0.025
146 | GTTTGGTTAT | 0.995 ± 0.012
147 | CAGGACACCT | 1.17 ± 0.034
148 | GACTGGATGG | 0.98 ± 0.011
149 | AGGGCGTTGT | 0.969 ± 0.035
150 | GAGTTATCG | 1.01 ± 0.018

Row | Sequence | switch fluorescence ratio
151 | AGACGGCGTG | 0.9799 ± 0.0066
152 | CCTGGGGGCA | 1.04 ± 0.0089
153 | TGGATCAATT | 1.01 ± 0.011
154 | CGGCTGCGGG | 0.978 ± 0.022
155 | TCTTTCATGT | 1.02 ± 0.02
156 | TCAGAGTGCT | 1.03 ± 0.025
157 | CGGGTGGAGC | 0.952 ± 0.011
158 | CAGTTAGTAC | 1.1 ± 0.018
159 | TGCCCATGAT | 0.963 ± 0.018
160 | TGAGATCGCG | 1.004 ± 0.0018
161 | TCAGGGGGAC | 1.78 ± 1.3
162 | TATGTTTGGC | 1 ± 0.04
163 | TTTGGACAGT | 0.978 ± 0.03
164 | CGGGAGGAGG | 1 ± 0.028
165 | ACTTGCGTCG | 0.981 ± 0.023
166 | TGAGGGGGAT | 1 ± 0.051
167 | CAGGACACTA | 1.03 ± 0.026
168 | TATCAAATTA | 1.03 ± 0.011
169 | GATGTATATG | 0.992 ± 0.018
170 | GACGGAGAGA | 1.23 ± 0.029
171 | GAGGGGTCAG | 1 ± 0.039
172 | GTGACCGCCC | 1.49 ± 0.39
173 | GGCGGGGGTG | 1.04 ± 0.065
174 | TTTGGTGACG | 1.09 ± 0.029
175 | TATTATCGGA | 0.996 ± 0.048

Row | Sequence | switch fluorescence ratio
176 | TGGAGGTCTA | 1 ± 0.018
177 | TTGTGTTGGT | 0.999 ± 0.041
178 | TAGTACCGGT | 0.991 ± 0.029
179 | GGTACTTGTT | 1.05 ± 0.052
180 | AAGAGGTAAA | 0.972 ± 0.025
181 | ACGAGTAGGC | 0.986 ± 0.021
182 | TTATTGGGCA | 1.04 ± 0.021
183 | GGGGCAAATT | 1.05 ± 0.12
184 | TAAAGCAGTA | 0.995 ± 0.018
185 | GTGAGAATTT | 1.05 ± 0.075
186 | CGCCTAAACG | 1.04 ± 0.042
187 | TAATTGTTGC | 0.969 ± 0.016
188 | CATCGGATTT | 0.972 ± 0.01
189 | TTTGATTTTC | 0.976 ± 0.049
190 | AAGCGAAAAA | 1.01 ± 0.092
191 | ATTTTGGTTT | 0.989 ± 0.025
192 | ATCTCTCATA | 1.01 ± 0.038
193 | TAGGGGGAGC | 1.01 ± 0.062
194 | AGGATGGTGA | 0.968 ± 0.015
195 | CACGGGCGGG | 1.05 ± 0.063
196 | GGTTTTGAGA | 1.02 ± 0.029
197 | AAGTTTATTA | 0.964 ± 0.017
198 | TTTTGGCCGT | 1.1 ± 0.15
199 | GTTTTTCTTC | 0.9923 ± 0.0058
200 | TCAGAGATGA | 0.95 ± 0.026
